Test results taken from PMC7429481, “Signalling, trafficking and glucoregulatory properties of glucagon‐like peptide‐1 receptor agonists exendin‐4 and lixisenatide” (British Journal of Pharmacology, 2020).

Target: human SNAP‐GLP‐1 receptor (HEK293‐SNAP‐GLP‐1 receptor cells) (human) (UniProt P43220)
Assay: FRET or BRET

human SNAP‐GLP‐1 receptor (HEK293‐SNAP‐GLP‐1 receptor cells) (human), sequence (P43220 24-463): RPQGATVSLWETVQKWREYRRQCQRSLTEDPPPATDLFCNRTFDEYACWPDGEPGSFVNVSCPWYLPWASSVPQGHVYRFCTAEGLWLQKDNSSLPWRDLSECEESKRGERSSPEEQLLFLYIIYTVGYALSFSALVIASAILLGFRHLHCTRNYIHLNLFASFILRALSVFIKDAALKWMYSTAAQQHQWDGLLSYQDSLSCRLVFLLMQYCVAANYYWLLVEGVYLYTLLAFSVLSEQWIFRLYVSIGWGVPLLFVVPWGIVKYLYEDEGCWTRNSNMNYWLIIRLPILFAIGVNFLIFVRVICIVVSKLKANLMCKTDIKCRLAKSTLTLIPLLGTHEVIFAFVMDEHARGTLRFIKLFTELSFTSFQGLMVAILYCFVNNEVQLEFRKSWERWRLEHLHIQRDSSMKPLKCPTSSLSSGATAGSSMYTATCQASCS

| Substance | log KD |
| --- | --- |
| exendin‐4 (from UniProt P26349 48-87) (peptide) | -9.2 |
| lixisenatide (peptide) | -9 |
